These results are taken from patent US20170007716A1 (published 2017).

Test [1] deals with T1, huFAP fusion protein (UniProt Q12884 27-760). Put plainly: ELISA. For orientation: In an ELISA, binding on a coated surface is turned into a signal by an enzyme label.
The target in test [2] is T2, human FAP on HT1080 cells (HT1080-huFAP, stable transfectants) (UniProt Q12884 1-760). Kind of test: FACS.
Test [3] has as its target T1, huFAP fusion protein. Put plainly: ELISA; DAR 3.48.
The target in test [4] is T2, human FAP on HT1080 cells …. Kind of test: FACS; DAR 3.48.

Usually EC50 stands for the concentration giving half of the maximal effect.

T1 sequence (Q12884 27-760): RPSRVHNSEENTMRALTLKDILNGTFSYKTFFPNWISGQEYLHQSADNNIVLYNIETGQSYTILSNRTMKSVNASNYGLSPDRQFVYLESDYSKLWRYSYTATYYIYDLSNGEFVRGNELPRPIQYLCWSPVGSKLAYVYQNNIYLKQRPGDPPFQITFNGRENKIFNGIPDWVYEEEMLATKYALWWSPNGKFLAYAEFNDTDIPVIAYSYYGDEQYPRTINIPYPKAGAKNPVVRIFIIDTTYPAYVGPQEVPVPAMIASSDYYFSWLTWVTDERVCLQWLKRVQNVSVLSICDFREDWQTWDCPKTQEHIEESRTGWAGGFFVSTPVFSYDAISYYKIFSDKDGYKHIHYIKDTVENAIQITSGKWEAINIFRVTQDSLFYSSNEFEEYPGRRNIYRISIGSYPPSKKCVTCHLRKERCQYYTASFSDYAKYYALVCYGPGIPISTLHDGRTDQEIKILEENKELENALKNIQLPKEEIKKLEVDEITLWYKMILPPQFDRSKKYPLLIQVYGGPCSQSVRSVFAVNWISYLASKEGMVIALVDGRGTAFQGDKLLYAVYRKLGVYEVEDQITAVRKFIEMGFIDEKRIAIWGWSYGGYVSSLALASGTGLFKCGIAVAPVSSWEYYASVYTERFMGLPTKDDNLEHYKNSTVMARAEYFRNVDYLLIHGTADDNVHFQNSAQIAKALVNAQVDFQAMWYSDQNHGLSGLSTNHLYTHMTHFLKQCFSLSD
T2 sequence (Q12884 whole entry, the tested form may be a part): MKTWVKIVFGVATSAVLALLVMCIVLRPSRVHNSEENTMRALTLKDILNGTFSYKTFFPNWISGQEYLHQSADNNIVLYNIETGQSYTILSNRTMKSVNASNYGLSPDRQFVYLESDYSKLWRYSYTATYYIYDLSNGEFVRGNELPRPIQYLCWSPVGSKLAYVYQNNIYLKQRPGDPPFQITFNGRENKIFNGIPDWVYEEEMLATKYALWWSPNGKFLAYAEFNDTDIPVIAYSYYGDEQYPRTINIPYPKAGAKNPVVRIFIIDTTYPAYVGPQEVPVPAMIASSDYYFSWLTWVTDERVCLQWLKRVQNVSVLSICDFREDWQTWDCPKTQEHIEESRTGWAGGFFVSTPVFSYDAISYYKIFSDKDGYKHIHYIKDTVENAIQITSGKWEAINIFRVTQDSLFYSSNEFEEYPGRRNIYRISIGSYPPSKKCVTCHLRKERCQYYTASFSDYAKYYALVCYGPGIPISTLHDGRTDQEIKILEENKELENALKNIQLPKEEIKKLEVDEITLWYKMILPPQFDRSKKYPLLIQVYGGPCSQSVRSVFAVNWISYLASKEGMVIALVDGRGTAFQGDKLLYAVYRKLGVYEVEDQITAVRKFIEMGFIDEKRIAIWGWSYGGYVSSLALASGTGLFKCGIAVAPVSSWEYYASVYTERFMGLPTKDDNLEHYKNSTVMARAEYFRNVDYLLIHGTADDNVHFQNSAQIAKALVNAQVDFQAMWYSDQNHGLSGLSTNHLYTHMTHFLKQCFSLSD

B1: humanized anti-FAP IgG1 hu36 (hu36-IgG1) (antibody, V domains shown)
VH: QVQLVQSGAEVKKPGASVKVSCKASGYTFTENIIHWVRQAPGQGLEWMGWFHPGSGSIKYNEKFKDRVTMTADTSTSTVYMELSSLRSEDTAVYYCARHGGTGRGAMDYWGQGTLVTVSS
VL: DIQMTQSPSSLSASVGDRVTITCRASKSVSTSAYSYMHWYQQKPGKAPKLLIYLASNLESGVPSRFSGSGSGTDFTLTISSLQPEDFATYYCQHSRELPYTFGQGTKLEIKR
B1: the EC50 with huFAP fusion protein [1] is 210 pM; in test [2] it was 67 pM.

B2: Anti-FAP hu36:TAM471 ADC (ADC-471) (antibody, V domains shown)
VH: B1 VH
VL: B1 VL
modifications: cytolysin TAM471 through maleimidocaproyl-vcPABA linker on cysteine residues (not site-specific); cytolysin TAM471 through maleimidocaproyl-vcPABA linker on cysteine residues (not site-specific), DAR 3.48 for the whole antibody
Consider B2, for which the EC50 came out at 153 pM in the test with huFAP fusion protein [3] and 81 pM in test [4].
